# Data as given in US20160060347A1 (MorphoSys, published 2016).
# Positions count from the first letter of the chain named.
# T1: human CXCR2 (human, UniProt P25025 1-360)
# T1 construct: Expressed on Flp-In CHO cells (FACS, Fab-ZAP, ADCC, CDC) or on bought PathHunter CHO cells (beta-arrestin assay); the construct in the PathHunter cells is not described; also called chemokine receptor CXCR2; CXCR2 CHO Flp-In cells
# T1 sequence: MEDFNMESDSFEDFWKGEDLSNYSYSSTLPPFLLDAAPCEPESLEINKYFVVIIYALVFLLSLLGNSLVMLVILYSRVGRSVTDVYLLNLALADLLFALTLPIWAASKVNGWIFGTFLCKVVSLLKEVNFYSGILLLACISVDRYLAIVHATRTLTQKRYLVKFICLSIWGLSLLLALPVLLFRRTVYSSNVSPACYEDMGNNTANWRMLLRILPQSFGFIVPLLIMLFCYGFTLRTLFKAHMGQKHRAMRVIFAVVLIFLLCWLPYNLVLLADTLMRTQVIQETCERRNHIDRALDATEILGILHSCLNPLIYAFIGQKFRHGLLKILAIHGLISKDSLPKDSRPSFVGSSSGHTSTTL
# B1: CX2-Mab #11 (Fab, V domains shown)
# VH: QVQLVQSGAEVKKPGSSVKVSCKASGGTFTDYAISWVRQAPGQGLEWMGGIIPIFGTANYAQKFQGRVTITADESTSTAYMELSSLRSEDTAVYYCARHSYSFDYWGQGTLVTVSS
# VL: DIELTQPPSVSVSPGQTASITCSGDNLRKKYAYWYQQKPGQAPVLVIGSKSNRPSGIPERFSGSNSGNTATLTISGTQAEDEADYYCQSYDSGRVVFGGGTKLTVLG
# B2: CX2-Mab #14 (Fab, V domains shown)
# VH: QVQLQQSGPGLVKPSQTLSLTCAISGDSVSSNSAAWNWIRQSPSRGLEWLGRIYYRSKWYNDYAVSVKSRITINPDTSKNQFSLQLNSVTPEDTAVYYCARDVPYYSDYSHYVYYYGAWFDVWGQGTLVTVSS
# VL: DIELTQPPSVSVSPGQTASITCSGDSIPYNYAHWYQQKPGQAPVLVIYDDSDRPSGIPERFSGSNSGNTATLTISGTQAEDEADYYCGAYDKKWVVFGGGTKLTVLG
# B3: CX2-Mab #3.2 (antibody, IgG1, V domains shown)
# VH: QVQLLESGGGLVQPGGSLRLSCAASGFTFSSYAMSWVRQAPGKGLEWVSLISQGGLTYYADSVKGRFTISRDNSKNTLYLQMNSLRAEDTAVYYCARGRVGYAFDYWGQGTLVTVSS
# VL: DIVLTQPPSVSGAPGQRVTISCSGSSSNIGVNYVNWYQQLPGTAPKLLIYSNNQRPSGVPDRFSGSKSGTSASLAITGLQAEDEADYYCQSRASGFYSVVFGGGTKLTVLG
# B4: CX2-Mab #4.1 (antibody, IgG1, V domains shown)
# VH: QVQLVQSGAEVKKPGSSVKVSCKASGGTFSSYAISWVRQAPGQGLEWMGHIPPNEGTPWYAQKFQGRVTITADESTSTAYMELSSLRSEDTAVYYCARGYGFDVWGQGTLVTVSS
# VL: DIVLTQPPSVSGAPGQRVTISCSGSSSNIGVNIVNWYQQLPGTAPKLLIYSTSNRPSGVPDRFSGSKSGTSASLAITGLQAEDEADYYCATRDGISKSVVFGGGTKLTVLG
# B5: CX2-Mab #4.2 (antibody, IgG1, V domains shown)
# VH: QVQLLESGGGLVQPGGSLRLSCAASGFTFSSNGMSWVRQAPGKGLEWVSAISSSGSKTYYADSVKGRFTISRDNSKNTLYLQMNSLRAEDTAVYYCARGYGFDVWGQGTLVTVSS
# VL: B4 VL with A90G, R92Y, G94V, I95Q, K97H, S98Q, V99M
# B6: CX2-Mab #1.1 (antibody, IgG1, V domains shown)
# VH: QVQLVQSGAEVKKPGSSVKVSCKASGGTFSSYAISWVRQAPGQGLEWMGGIIPIVGEAKYAQKFQGRVTITADESTSTAYMELSSLRSEDTAVYYCARDSSGYDGYYAFAYWGQGTQVTVSS
# VL: DIVLTQPPSVSGAPGQRGTISCSGSSSNIGSSSVNWYQQLPGTAPKLLIYRNNQRPSGVPDRFSGSKSGTSASLAITGLQAEDEADYYCGSTDMSTNSIVFGGGTKLTVLG
# B7: CX2-Mab #1.3 (antibody, IgG1, V domains shown)
# VH: B6 VH
# VL: DIVLTQPPSVSGAPGQRGTISCSGSSSNIGSSSVNWYQQLPGTAPKLLIYRNNQRPSGVPDRFSGSKSGTSASLAITGLQAEDEADYYCAVTTKPQGIVFGGGTKLTVLG
# B8: CX2-Mab #1.4 (antibody, IgG1, V domains shown)
# VH: B6 VH
# VL: B7 VL with V91S, T93D, K94I, P95S, Q96R, G97V
# B9: CX2-Mab #1.6 (antibody, IgG1, V domains shown)
# VH: B6 VH
# VL: B6 VL with G90A, T92R, M94H, S95F, T96S, N97H, S98G, I99L
# Target: T2, N-terminal peptide aa1-48, BSA-coupled (human; bovine, coupled to carrier protein BSA; C-terminal cysteine introduced to enable coupling)
# T2 construct: also called CXCR2 aa1-48 BSA
# Assay: ELISA, coated peptide-BSA, Fab
# Protocol: (§1) 384-well Maxisorp plates (Nunc; Cat. #460518) were coated with respective CXCR2 and control peptides coupled either to BSA or Transferrin (TRF) at 1-5 μg/mL and incubated o/n at 4° C. […] After three washing steps, antibodies were added at 5-10 μg/mL and titrated in some experiments. Antibodies were incubated 1 h at room temperature and plates were subsequently washed. Binding of anti-CXCR2 antibodies was detected by using alkaline phosphatase-conjugated anti-human IgG, (Dianova, Cat #109-055-097). AttoPhos fluorescence substrate (Roche, Cat #1484281) was added according to instructions of the manufacturer and fluorescence was measured (excitation at 430 nm, emission at 535 nm) using a microplate reader.
# T2 sequence (P02769 25-607 limits assumed): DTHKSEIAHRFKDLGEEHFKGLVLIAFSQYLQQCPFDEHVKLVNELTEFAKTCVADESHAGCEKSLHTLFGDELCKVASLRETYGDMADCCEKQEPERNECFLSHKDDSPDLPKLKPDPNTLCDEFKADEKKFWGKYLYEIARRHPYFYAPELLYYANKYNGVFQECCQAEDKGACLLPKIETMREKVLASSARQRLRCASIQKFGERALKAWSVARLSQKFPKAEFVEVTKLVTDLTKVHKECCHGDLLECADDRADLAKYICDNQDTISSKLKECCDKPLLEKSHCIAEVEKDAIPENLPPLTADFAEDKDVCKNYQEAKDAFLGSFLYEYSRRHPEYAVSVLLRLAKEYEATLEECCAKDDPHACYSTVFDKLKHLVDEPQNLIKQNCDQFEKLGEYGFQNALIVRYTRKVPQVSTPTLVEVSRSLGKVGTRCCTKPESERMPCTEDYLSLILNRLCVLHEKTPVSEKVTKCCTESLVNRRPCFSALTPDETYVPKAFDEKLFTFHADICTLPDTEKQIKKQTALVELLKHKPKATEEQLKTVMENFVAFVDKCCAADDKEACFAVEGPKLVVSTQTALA
row,binding result,Binder
1,binds,B1
2,binds,B2

# Target: T3, hu_CXCR2_N-term (1-17)-BSA (human; bovine, coupled to carrier protein BSA; C-terminal cysteine introduced to enable coupling)
# T3 construct: Synthetic linear peptide chemically coupled to the carrier; also called CXCR2_aa1-17_BSA; CXCR2 aa1-17 BSA
# Assay: ELISA, coated peptide-BSA, IgG1
# Protocol: as §1
# T3 sequence (P02769 25-607 limits assumed): as above
row,binding result,Binder
1,binds,B3
2,binds,B4
3,binds,B5
4,binds,B6
5,binds,B7
6,binds,B8
7,binds,B9

# Target: T2, N-terminal peptide aa1-48, BSA-coupled
# Assay: ELISA, coated peptide-BSA, IgG1
# Protocol: as §1
row,binding result,Binder
1,binds,B3
2,binds,B4
3,binds,B5
4,binds,B6
5,binds,B7
6,binds,B8
7,binds,B9

# Target: T1, human CXCR2
# Assay: FACS, CXCR2 CHO Flp-In cells, Fab
# Protocol: (§2) Human CXCR2-expressing Flp-In™ CHO cells were harvested at ˜80% confluence washed once with PBS (Gibco, Cat #14190-094) and detached using Versene (Invitrogen, Cat #15040-033). Subsequently, cells were counted and centrifuged at 250×g for 5 min at 4° C. Afterwards, cells were diluted in Superblock (Thermo Fisher Perbio Science, Cat #37515) to a cell concentration of 2E+05-1E+06/mL and 100 μL/well were transferred to 96-well microtiter plate (Nunc, Cat#163320). Cells were once centrifuged, supernatant discarded and antibodies added at 1 μg/mL (unless stated otherwise), incubated for 1 h at 4° C. and washed twice with FACS buffer (PBS/3% FCS/0.02% NaN3). Binding of anti-CXCR2 antibodies was detected by incubation of Phycoerythrin-conjugated anti-human IgG (Dianova, Cat #109-116-097) for 1 h at 4° C. Samples were subsequently measured using FACS Array (Becton Dickinson).
row,binding result,Binder
1,binds,B1
2,binds,B2

# Target: T1, human CXCR2
# Assay: FACS, CXCR2 CHO Flp-In cells, IgG1
# Protocol: as §2
row,binding result,Binder
1,binds,B3
2,binds,B4
3,binds,B5
4,binds,B6
5,binds,B7
6,binds,B8
7,binds,B9
